The assay addresses phospholipase B D2. The assay can be described thus: IP-MS (UBQLN2 immunoprecipitation, mass spectrometry). The settings on record: iMNs; read off a plot.

Consider “Ubiquilin-2, wild type (from UniProt Q9UHD9) P497H; P506T; P509S; P525S”, for which the other: Student's T-test Difference was determined as 0.47.

The values are drawn from paper PMC12813162.
